# Experimental data published in patent publication US20210063414A1, “METHODS FOR PREVENTING AND/OR TREATING BONE LOSS CONDITIONS BY MODULATING IRISIN” (Dana-Farber Cancer Institute, Inc., priority 2018, published 2021).
# T1: MLO-Y4 cell surface proteins (Mus musculus, UniProt Q08189)
# T1 construct: endogenous in cells; host or cells: MLO-Y4
# T1 sequence (Q08189 1-693): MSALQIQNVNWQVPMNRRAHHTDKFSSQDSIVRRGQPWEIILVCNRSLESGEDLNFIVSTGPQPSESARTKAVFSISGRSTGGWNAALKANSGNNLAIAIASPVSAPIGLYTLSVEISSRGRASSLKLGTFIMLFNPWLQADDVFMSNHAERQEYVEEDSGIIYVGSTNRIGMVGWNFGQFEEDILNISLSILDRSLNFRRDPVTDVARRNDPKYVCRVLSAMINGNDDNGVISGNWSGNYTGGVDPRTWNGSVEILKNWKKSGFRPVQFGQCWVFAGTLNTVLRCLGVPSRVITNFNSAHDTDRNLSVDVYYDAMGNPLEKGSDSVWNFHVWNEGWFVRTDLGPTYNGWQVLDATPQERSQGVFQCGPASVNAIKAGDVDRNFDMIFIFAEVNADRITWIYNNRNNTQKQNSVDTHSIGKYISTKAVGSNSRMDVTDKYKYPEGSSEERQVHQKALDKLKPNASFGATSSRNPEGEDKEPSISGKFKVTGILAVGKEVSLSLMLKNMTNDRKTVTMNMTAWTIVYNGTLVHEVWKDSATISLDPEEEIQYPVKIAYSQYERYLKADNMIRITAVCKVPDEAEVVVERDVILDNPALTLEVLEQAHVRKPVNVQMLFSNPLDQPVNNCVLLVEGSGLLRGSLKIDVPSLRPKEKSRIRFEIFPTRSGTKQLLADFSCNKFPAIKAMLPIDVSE
# T2: MLO-Y4 cell surface proteins (Mus musculus, UniProt Q8K273)
# T2 construct: endogenous in cells; host or cells: MLO-Y4
# T2 sequence (Q8K273 1-131): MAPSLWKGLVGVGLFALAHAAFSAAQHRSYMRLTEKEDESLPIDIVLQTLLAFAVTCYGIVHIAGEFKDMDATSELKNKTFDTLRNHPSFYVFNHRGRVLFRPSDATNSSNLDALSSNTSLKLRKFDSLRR
# B1: irisin: secreted cleaved form of FNDC5; recombinant human/mouse irisin with C-terminal his tag produced in HEK293 cells (protein)
# chain: DSPSAPVNVTVRHLKANSAVVSWDVLEDEVVIGFAISQQKKDVRMLRFIQEVNTTTRSCALWDLEEDTEYIVHVQAISIQGQSPASEPVLFKTPREAEKMASKNKDEVTMKE
# modifications: left off: small tags and cut ends
# notes: secreted cleaved form of FNDC5; recombinant human/mouse irisin with C-terminal his tag produced in HEK293 cells
# Columns and labels:
# Experiment in all cases: Crosslinking/co-immunoprecipitation/mass spectrometry (TMT quantitative proteomics) to identify irisin receptors
# Format in all cases: binding
# [1] = biological target: T3, MLO-Y4 cell surface proteins (Mus musculus, UniProt P61161); conditions: co-precipitated protein Actr2 (ARP2_MOUSE)
# T3 construct: endogenous in cells; host or cells: MLO-Y4
# Summary of the method: (§1)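 Mouse MLO-Y4 cells were switched to serum-free FreeStyle medium for 4 h, chilled, then exposed to 10 nM His-tagged irisin (or adipsin as control) for 20 min. Cells were crosslinked with 1.5 mM DTSSP (30 min, ice), and bound proteins were pulled down on Ni-NTA and eluted with 250 mM imidazole. Eluates were separated by SDS-PAGE, trypsin-digested in gel, TMT 6-plex labelled and quantified by MS3-based LC-MS/MS on an Orbitrap Fusion Lumos.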
# [2] = biological target: T1, MLO-Y4 cell surface proteins; conditions: co-precipitated protein Tgm3 (TGM3_MOUSE)
# Summary of the method: as §1
# [3] = biological target: T2, MLO-Y4 cell surface proteins; conditions: TMT ratio, Mmgt1 Membrane magnesium transporter 1
# Summary of the method: as §1
molecule,measurement,setting,value
B1,TMT signal-to-noise ratio,[1],84.7644
same,irisin/adipsin TMT signal-to-noise ratio,[1],0.552
same,TMT signal-to-noise ratio,[2],45.8379
same,irisin/adipsin TMT signal-to-noise ratio,[2],0.167
same,irsin/adipsin,[3],2.94
